Measurements as given in the supplement of paper PMC9170038.

Each sequence was assayed on K4 kissing-loop RNA reporter (assay: apparent KD of K4 kissing-loop reporter; higher = weaker reporter binding). Conditions: Eterna round: R107; input ligand: theophylline 20 uM.
Description: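 RNA-MaP round R107: designed RNA switches with theophylline, tryptophan, arginine or FMN aptamers are transcribed on-chip within common flanks. They are titrated with a labelled K4 kissing-loop RNA reporter in RNA-MaP buffer (100 mM Tris pH 7.5, 80 mM KCl, 4 mM MgCl2), without ligand or with the indicated ligand. Median apparent KD per design.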
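Further: bound reporter read as fluorescence of individual clusters on recovered sequencing chips by microscopy, with normalized cluster intensities fitted with a binding model.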

Point of comparison: “GGUGGACUAGUCGAGUGAUGUUCGAGGCAUCGAGGACCGGUACGGCCGCCACUCGCAAAUCUACCGUGCGUUAACCACCAAAGUG [theeternabot_sameState_KL_Trp_A_37]”, “apparent KD of K4 kissing-loop reporter” value 317 nM. Against it:
- UUGAUAUGAUAGUAUCUUGUUUGAUAAAGGCAGGAUAUCGUAUAUUUGAGAAGGGCCAUUAUAUGCAGUGAUGUUGCAAAUAAGU [Exclusion FMN A Gf 25] — 5.2-fold lower, 61.4 nM
- ACUGGGUUGACGAAAGUCAACAAAUGAGAAGGAGCGCACGAAAGUGCAGGUAGGUCGCUCAUUCCAGUGAUGUUGGAUCACCAGA [#SwitchBubble 19 #K4Late] — 2.6-fold higher, 831 nM
- GAGAGCUCUGGAGGAUAUGAGUCUAGUGAUGUUAGGCGGUCCAUGCGCGUGGCGCGUUAUGCCCUUUUAGAAGGCCAGAGCUCUC [#2 Exclusion - FMN B Attempt #19 (HarryS)] — 2.8-fold lower, 113 nM
- CUGGGUUGACGAAAAGUCAACAAACGAGAAGGAGCGCACGAAAGUGCAGGUAGGUCGCUCAGUCCAGUGAUGUUGGAACAUCCAG [#SwitchBubble 8 #K4Late] — 1.6-fold higher, 508 nM
- GGGCCUGGGCCCGGAAGGGCCUGGGCCCGUUAGGAUAUGACGUGAUUCAGAAGGGAUGGGUGGAGUGAUGUUCCACCCGAGAGGG [#2 Same State - FMN A Attempt #25 (HarryS)] — 4.3-fold lower, 73.1 nM
- GAUAUAGUGAUGUUAUAUAGGAAGGAGUUACGAGGACCGGUACGGCCGCCACUCGAAACGAGUGAUGAUUUGGGAGAUUGGGUUG [SSTryptA.P] — within 1.5-fold, 430 nM
- UGACUGGACUGAAGGAGCGCUAAAACUCCUAGUGAUGUUAGGAAAACGAGACAAAGUCUCGAGCAGGUAGGUCGCAGUCUAGUCU [ArgBS 21 #SwitchBubble #StaticStem] — 2.1-fold lower, 148 nM

Same assay, conditions: Eterna round: R107; input ligand: tryptophan 2.4 mM

Point of comparison: “UGACUGGACUGAAGGAGCGCUAAAACUCCUAGUGAUGUUAGGAAAACGAGACAAAGUCUCGAGCAGGUAGGUCGCAGUCUAGUCU [ArgBS 21 #SwitchBubble #StaticStem]”, “apparent KD of K4 kissing-loop reporter” value 128 nM. Against it:
- CGCAGUGAUGUUGCGAAUAUAAUCACGGAAGGAGCGCGUGAAAACGCAGGUAGGUCGCCGUGUGGUAUGAUGGAAACAUCGUACC [Arginine A K4 12] — within 1.5-fold, 191 nM
- ACACUCGGCUCGGCCGCCACUCCAGUGAUGUUGGAGUCAUAGCUAUGACGAGAAGAGCGUUUUCGGAGGACCGGGAGCUCACAGG [Leveeder] — 1.7-fold higher, 222 nM
- CGUUUAUAGCAGGAUACCAGUACCCAUAAAGUACGUUAAUAGUAGAGUGAUGUUCUAAAGUACCCUUGGCAGCUUCCCGUGACCC [ExTheophylB.W] — 1.6-fold lower, 79.6 nM
- AUCCGAGAAUAUGAUACCAGCUGAGUGUAUCAAGACCGUAUCUCCCGUGCUAGUGAUGUUAGCCCUUGGCAGCAUAUGAAAGCGG [theeternabot_exclusion_KL_Theo_B_15] — 4.5-fold higher, 570 nM
- UAGUCUCGAGUCUGAGAUUACGGGUCAGAUACCAGACUAGAGAUAGUCCCUUGGCAGCUGAAGUUCAGUGAUGUUGAACGGAUUA [Theo B SS t10a] — 2.9-fold higher, 377 nM
- AAUUAAUGUAUAGAUUAUAUACAUUAAUCAGAGGAUAUGCUUUGUUGCAGAAGGCUGAAUGCAGUGAUGUUGCAAUUUUAAUUUA [JR_SSFMNA_Sub005] — 2.7-fold lower, 46.7 nM
- CGCAAGCAGCCAGUGAUGUUGGCCGCCUUGCGAGGACCGGUACGGCCGCCACUCGAAGGCGGCUACUGAUAAACCGUCUAACGGA [KL-XTryp-A9] — 2.1-fold higher, 274 nM
- ACGUUCGGAACGGCCGCCACUAUGGGCAGUGAUGUUGCCCAUAACCGGUUUUGCGUCAGAUCCCUUAGGACCGGGUUCUGGUAUA [Soonlesoso] — 1.7-fold lower, 75.2 nM
- AGUGAUGUAUGGCGGUUUGUCACUUAUUAUCAGGAUAUAUAAACAAAUAGAAGGGAUGGCGGAGUGAUGUUCCGCCGGCCGCCAU [FMN A Exl V5] — within 1.5-fold, 166 nM
- AGAACUGUCUUGGAUACCAGUGAUGUUGGUAUCUGUGUGUGAGUGCAAAGCGUCCCACAUUGCCCUUGGCAGCUAAGACUGUUCA [Omei KL Theo B Exc A v1] — within 1.5-fold, 132 nM
- UUUGAAAUGACUGAUACCAGUGAAAAUAUAUGUAGUGAUGUUAUAUACUAAUUUAAUAAGCGCCCUUGGCAGCAGUAUGAAUUAU [AstrosExc-theB#16] — 4.4-fold higher, 560 nM
- GCGAGUUUGCAAGGAUAUCGACCGUCGUACGACCAGUGAUGUUGGGAGUACUUUCAAAAUCGAUUUCGAGAAGGUGCUGGCAUCA [theeternabot_sameState_KL_FMN_B_12] — 1.8-fold higher, 234 nM
- UAAUAUAAUCUGUCGUAAACAAUAAUUAGUCAGGAUAUCGUAUAUUCGAGAAGGGACACUAUCUAGUGAUGUUAGAUAUUUCGUU [JR_SSFMNA_Sub026] — 2.7-fold lower, 47.6 nM
- GCGGGCCCUGGAGGAUAUGAGUCGAGUGAUGUUCGGCGGUCCAUGCCGAUGCGGCGUUAUGCCCUUUUAGAAGGCCAGGGCCCGC [#2 Exclusion - FMN B Attempt #7 (HarryS)] — 2.2-fold higher, 277 nM
- GGUUCUGGAAUCGAGUGAUGUUCGGUGUUGCAGGAUAUAGAGAGAUCUAGAAGGGCAGUUUGUAUUUUAUUGAGUGAUUUUCUUU [Last Minute #3] — within 1.5-fold, 93.4 nM
- AUCGUUGUCUGAGGAUAUCGGUUAACUGUAGUGAUGUUACAGAAAAUUCAUAUAAUAUUUUCUAUUCGAGAAGGCAGACUACGUA [JR_ExcFMNB_Sub018] — within 1.5-fold, 177 nM
- GCUAUGGUAGGAAGGAGCGCUUGUUCGGUCAUAUGAGUGAUGUUCGAGACUGAGCAUUUAUAGCAGGUAGGUCGCCUACUAUAGC [Arginine B K4 10] — within 1.5-fold, 175 nM
- GCAAUUCUCAGUGAUGUUGAGUAAUCGGAAGGAGCGCGUGAAAACGCAGGUAGGUCGCCGAAACAUGAAGUAUCUUCGUGUUUGC [Arginine A K4 24] — within 1.5-fold, 168 nM
- GGAUUUGAGUGAUGUUUAAAACGAGUGUCCAAGGAUAUUGCCCAAACAAGAAGGUGGGCAUGCUUUUGCGAUAAUCAACGGAGAC [theeternabot_exclusion_KL_FMN_A_9] — 2.3-fold higher, 291 nM
- GUAGGAUGAGGAGGAGGAUGAAUUACUGAAGGAGCGCAUAUUUUUGCAGGUAGGUCGCGGUAAAGAAGUAUAGUGAUGUUAUAUA [SSArgA.J] — 2.4-fold higher, 304 nM
- CGUUUAUAGCAGGAUACCAGUACCCAUAAAGUACGUUAAUAGUAGAGUGAUGUUCUAAAGUACCCUUGGCAGCUUCCAGUGAGUG [ExTheophylB.S] — 1.5-fold lower, 85.3 nM
- AAACGCUUGAAUAACAAGCGAAUAAAUUCGCGAGGACCGGUACGGCCGCCACUCGCUAACUGCGAGUGAUGUUCGAUAAUAAAAU [Mat - Mod of OpenEnded 3 - D14] — within 1.5-fold, 95 nM
- GGGUGGCAGGCGGCCGCCACUCUUAGCAGCCAGUGAGUGAUGUUCGUGGCGGAAGAAUGUUCGUAGAGGACCGGGUUUGUUGUUC [Same State Tryptophan B GF 21] — 1.7-fold higher, 216 nM
- UUUUACGAGUGAUGUUCGUAAUGUAAUAGUUAGGAUAUCGUUUUUUCGAGAAGGAACUUCGAAGUGAUACGAAAGUAUCGCUUCG [FMN A 9] — within 1.5-fold, 159 nM
- GGUGGACUAGUCGAGUGAUGUUCGAGGCAUCGAGGACCGGUACGGCCGCCACUCGCAAAUCUACCGUGCGUUAACCACCAAAGUG [theeternabot_sameState_KL_Trp_A_37] — 2.7-fold higher, 344 nM
- UUGAUAUGAUAGUAUCUUGUUUGAUAAAGGCAGGAUAUCGUAUAUUUGAGAAGGGCCAUUAUAUGCAGUGAUGUUGCAAAUAAGU [Exclusion FMN A Gf 25] — 3.2-fold lower, 40 nM
- ACUGGGUUGACGAAAGUCAACAAAUGAGAAGGAGCGCACGAAAGUGCAGGUAGGUCGCUCAUUCCAGUGAUGUUGGAUCACCAGA [#SwitchBubble 19 #K4Late] — 3.6-fold higher, 464 nM
- GAGAGCUCUGGAGGAUAUGAGUCUAGUGAUGUUAGGCGGUCCAUGCGCGUGGCGCGUUAUGCCCUUUUAGAAGGCCAGAGCUCUC [#2 Exclusion - FMN B Attempt #19 (HarryS)] — 1.5-fold lower, 85 nM
- CUGGGUUGACGAAAAGUCAACAAACGAGAAGGAGCGCACGAAAGUGCAGGUAGGUCGCUCAGUCCAGUGAUGUUGGAACAUCCAG [#SwitchBubble 8 #K4Late] — 3.4-fold higher, 436 nM
- GGGCCUGGGCCCGGAAGGGCCUGGGCCCGUUAGGAUAUGACGUGAUUCAGAAGGGAUGGGUGGAGUGAUGUUCCACCCGAGAGGG [#2 Same State - FMN A Attempt #25 (HarryS)] — 2-fold lower, 63.3 nM
- GAUAUAGUGAUGUUAUAUAGGAAGGAGUUACGAGGACCGGUACGGCCGCCACUCGAAACGAGUGAUGAUUUGGGAGAUUGGGUUG [SSTryptA.P] — 2.6-fold higher, 332 nM
